Source: patent publication US7910550B2, “Human kunitz-type inhibitor with enhanced antifibrinolytic activity” (STC.UNM, priority 2004, dated 2011)

B1: TFPI-2: Human tissue factor pathway inhibitor-2, 213 amino acid polypeptide with three tandem Kunitz-type domains (SEQ ID NO:1) (protein, listed as Homo sapiens)
chain: DAAQEPTGNNAEICLLPLDYGPCRALLLRYYYDRYTQSCRQFLYGGCEGNANNFYTWEACDDACWRIEKVPKVCRLQVSVDDQCEGSTEKYFFNLSSMTCEKFFSGGCHRNRIENRFPDEATCMGFCAPKKIPSFCYSPKDEGLCSANVTRYYFNPRYRTCDAFTYTGCGGNDNNFVSREDCKRACAKALKKKKKMPKLRFASRIRKIRKKQF
B2: R24K KD1: KD1 with lysine in place of arginine at position 24 (SEQ ID NO:3) (protein)
chain: DAAQEPTGNNAEICLLPLDYGPCKALLLRYYYDRYTQSCRQFLYGGCEGNANNFYTWEACDDACWRIEKVPKV
modifications: mutated active domain

Experiments:
[1] = system: FGF-2-induced angiogenesis; assay: FGF-2-induced cornea pocket assay; format: in vivo; settings: preliminary studies
[2] = system: HT-1080 cells; assay: DNA fragmentation analysis by agarose gel electrophoresis; format: cell-based, human; settings: 48 hours
Method: Cells were grown to confluence in 6-well plates and treated with either wild-type TFPI-2 or R24K KD1 at the same concentrations described above. After incubation for either 24 or 48 hours at 37° C., the cells were harvested and washed twice with PBS. The DNA was then extracted using the DNEASY tissue kit (Qiagen, Valencia, Calif.) accordingly to the manufacturer's instructions. DNA extracts were electrophoresed in 1.8% agarose gels at 100 V for 45 minutes and visualized with ethidium bromide staining under UV illumination.

[3] = system: HT-1080 cells; assay: FACS analysis of apoptosis with annexin V/propidium iodide; format: cell-based, human; settings: 1 μM, 48 hours; for cells in a late apoptotic stage (annexin V and PI positive): vehicle 4%; for early apoptotic cells (annexin V-FITC positive): vehicle 16%
Method: (§1) All cell lines were maintained in Dulbecco's minimal essential medium (DMEM), supplemented with heat-inactivated 10% fetal bovine serum and penicillin-streptomycin. The cells were cultured either in 6- or 12-well plates at 37° C. in a humidified atmosphere containing 6% CO2. At confluence, the cells were treated with fresh medium containing either wild-type TFPI-2, R24K KD1, or R24Q KD1. Cells were treated in duplicate with purified proteins at concentrations ranging from 0.5 μM to 10 μM for different time intervals. One set were also treated with PBS to serve as a control. The Limulus Amebocyte Lysate (LAL) assay was performed on each protein preparation to determine the presence of any endotoxin/LPS, and only trace amounts of endotoxin (<0.5 ng/L) were detected in each protein preparation.
To assess the degree of apoptosis between the various treatments, cells were grown to confluence in 6 well plates and treated with either proteins or vehicle as described earlier. For annexin V staining, approximately 1.2×10^6 cells were harvested with PBS containing 1 mM EDTA and washed twice gently with cold PBS. The cells were suspended in 100 μl of cold binding buffer (10 mM Hepes (pH 7.4), 140 mM NaCl, 2.5 mM CaCl2), and subsequently incubated at room temperature in the dark for 25 minutes with 5 μl of FITC-conjugated annexin V and 10 μl of propidium iodide (50 μg/ml stock). The cells were then washed in 500 μl of binding buffer to remove unbound reagents, centrifuged at 900×g for 5 minutes, and resuspended in 1 ml of cold binding buffer. The labeled cells were then analyzed using a FACSCALIBUR flow cytometer (Becton Dickinson, San Jose, Calif.) and the data analyzed using […] software.

[4] = system: HT-1080 cells; assay: Western blot of cell extracts (Bax, Bcl-2, cleaved caspase-9, cleaved caspase-3); format: cell-based, human; settings: 1 μM, 48 hours; for activated caspase 9 and activated caspase 3 (immunoblot): vs vehicle-treated cells
Method: Cell extracts were analyzed for the pro-apoptotic Bax, the anti-apoptotic Bcl-2, cleaved caspase-9 and cleaved caspase-3 by immunoblotting techniques. Approximately, 1×10^6 HT-1080 cells were grown to confluence in 6-well plates and treated with recombinant proteins and vehicle as described above. Both floating and adherent cells were harvested and washed twice with cold PBS. The cells were lysed by sonication in 500 μl of lysis buffer containing of 125 mM Tris-HCl (pH 6.8), 2% SDS, 10% glycerol, 50 mM sodium phosphate, 1 mM PMSF and protease inhibitor cocktail. The lysate was kept on ice for about 10 minutes, centrifuged for 15 minutes at 10,000×g at 4° C., and the supernatant recovered. The supernatants were boiled for 3 min and 50 μg of lysate protein subjected to SDS-PAGE in 4-20% polyacrylamide gradient gels. […] The nitrocellulose membranes were then probed with specific antibodies dissolved in fresh blocking buffer, and immunoreactive proteins were identified using HRP-conjugated secondary antibodies and a chemiluminescent reagent system essentially as described in Kempiah et al., Mol. Cancer, 6:20, 2007. Separate blots were treated with mouse monoclonal anti-α-tubulin antibody in order to verify equal loading of lysate proteins onto the gel.

[5] = system: human umbilical vein endothelial cells (HUVECs); assay: In vitro human endothelial cell angiogenesis assay (capillary tube formation on ECMATRIX); format: cell-based; settings: for inhibition of angiogenesis (capillary-like tube formation): HUVECs on matrix
Source text: The angiogenesis assay is commercially available from Chemicon International, Inc. (Temecula, Calif.), and involves growing human umbilical vein endothelial cells (HUVECs) on a proprietary matrix, followed by assessing angiogenesis on this matrix by counting new branch points in sprouting endothelial cells.
A semi-quantitative assay for in vitro angiogenesis was utilized. Human umbilical vein endothelial cells (HUVEC, Clonetics Corp., Walkersville, Md.) were maintained in 25 cm^2 flasks in EGM-2 media (Clonetics Corp.) supplemented with 2% fetal bovine serum, gentamicin, amphotericin-B, hEGF, hydrocortisone, VEGF, hFGF-B, R^3-IGF-1, ascorbic acid and heparin. For assay, a 48-well tissue culture plate was coated with 100 μl of ECMATRIX (Chemicon International, Inc., Temecula, Calif.) followed by incubation at 37° C. for one hour. Approximately 5×10^4 cells were then seeded onto the surface of the polymerized matrix. Varying concentrations of full-length human TFPI-2, diluted in EGM-2 media and filtered, were added to the wells and plate was placed in 37° C.-humidified CO2 incubator. Each treatment was performed in duplicate wells. Separately, VEGF was used as a positive control. The three-dimensional organization of cells was examined every hour under an inverted photomicroscope. The capillary tube branch point formation was counted in each well following eight hours of incubation. For each concentration, eight randomly chosen areas under 250× magnified field were observed. The results are expressed as number of branching points (mean±SEM) and the differences between each mean value was tested by one way analysis of variance (ANOVA). Statistically p-value <0.05 was accepted.
To examine the effect of full-length human TFPI-2 on morphogenesis (capillary-like tube formation) of endothelial cells, HUVECs were seeded on the matrigel and treated with full-length human TFPI-2 (0.2 μM-5 μM).

[6] = system: HT-1080 cells; assay: Apoptosis detection by AO/EB staining; format: cell-based, human; settings: 1 μM, 48 h; approximately 5% in vehicle-treated cells
Method: as §1
Cells were grown to confluence in two-chamber culture slides containing 2 ml medium. For AO/EB staining, the cultures were treated with recombinant proteins as described above. […] Cells were viewed within 30 minutes of staining and counted using a Zeiss axiocam epifluorescence microscope (Carl Zeiss, Inc., Thornwood, N.Y.) equipped with a triple cube filter [DAPI/FITC/RITC]. […] Experiments were performed in triplicate, and a minimum of 100 total live and apoptotic cells were counted in each treatment.

[7] = system: human colorectal cancer cell line (Colo-205); assay: Caspase activation in Colo-205 cells; format: cell-based; settings: 48 hour exposure, 1 μM

Molecule	anti-angiogenic effect [1]	DNA fragmentation [2]	cells in a late apoptotic stage (annexin V and PI positive) [3]	early apoptotic cells (annexin V-FITC positive) [3]	Bax and Bcl-2 protein expression (immunoblot) [4]	activated caspase 9 and activated caspase 3 (immunoblot) [4]	capillary-like tube formation ([5]; 5 μM, overnight incubation)	inhibition of angiogenesis (capillary-like tube formation) [5]	inhibition of angiogenesis (capillary-like tube formation) ([5]; listed as wild-type TFPI-2)	apoptotic cells (AO/EB staining) [6]	caspase activation [7]
B1	potent and dose-dependent anti-angiogenic effect	ladder pattern typically associated with DNA fragmentation and apoptosis	~43%	55%	increased expression of the pro-apoptotic protein, Bax, and decreased expression of the anti-apoptotic protein, Bcl-2	activation of caspase-9 and caspase-3	no complete tube formation even after overnight incubation	significantly inhibited the capillary-like tube formation of HUVECs in a dose-dependent manner	inhibit angiogenesis	39%	
B2		ladder pattern typically associated with DNA fragmentation and apoptosis	~58%	41%	increased expression of the pro-apoptotic protein, Bax, and decreased expression of the anti-apoptotic protein, Bcl-2	activation of caspase-9 and caspase-3					caspase activation
